The values below come from PMC13462943.

Experiment [1] addresses T1, G9a methyltransferase domain (aa residues 913-1193), Del 1163-4, Q96KQ7-1.
T1 chain: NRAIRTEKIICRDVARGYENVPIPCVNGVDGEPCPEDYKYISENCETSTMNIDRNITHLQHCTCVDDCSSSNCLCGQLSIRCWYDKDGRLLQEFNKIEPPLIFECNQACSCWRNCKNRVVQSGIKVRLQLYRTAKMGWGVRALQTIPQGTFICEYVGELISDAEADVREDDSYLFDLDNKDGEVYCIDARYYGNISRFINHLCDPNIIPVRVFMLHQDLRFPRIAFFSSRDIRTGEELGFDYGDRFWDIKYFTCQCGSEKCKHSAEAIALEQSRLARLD
In words: native mass spectrometry (nESI-MS). The following applies: chain shown with the change;; read off a plot.

Experiment [2] deals with T2, N-terminal histone H3 peptide (amino acid residues 1-20), P68431. In words: differential scanning fluorimetry. The following applies: chain shown with the change; 500 µM histone H3 peptide; parent: est. 4.4; read off a plot.
In experiment [3] the target is T2, N-terminal histone H3 peptide (amino …). In words: native mass spectrometry. Particulars: chain shown with the change, protein and substrate concentrations 5 µM.

B1: G9a methyltransferase domain (aa residues 913-1193), wild type, Q96KQ7-1 S1163del; K1164del (protein)
chain: NRAIRTEKIICRDVARGYENVPIPCVNGVDGEPCPEDYKYISENCETSTMNIDRNITHLQHCTCVDDCSSSNCLCGQLSIRCWYDKDGRLLQEFNKIEPPLIFECNQACSCWRNCKNRVVQSGIKVRLQLYRTAKMGWGVRALQTIPQGTFICEYVGELISDAEADVREDDSYLFDLDNKDGEVYCIDARYYGNISRFINHLCDPNIIPVRVFMLHQDLRFPRIAFFSSRDIRTGEELGFDYGDRFWDIKYFTCQCGSEKCKHSAEAIALEQSRLARLD
On to B1, for which the ratio to parent in experiment [1] came out at 0.58. Also, the other: ΔTm upon substrate addition in experiment [2] came to 2.3 °C. Besides, the other: relative abundance, 2x peptide bound in experiment [3] (parent: 24) is under 1. Further, the other: relative abundance, free protein in experiment [3] (parent: 30) was determined as 88. The other: relative abundance, 1x peptide bound in experiment [3] (parent: 46) was found to be 11.
